This assay deals with T1, recombinant human insulin receptor (human, UniProt P06213-2 28-944, limits assumed).
T1 construct: also called rhIR; human IR
The assay is described as follows: direct ELISA, rhIR coated at 1 µg/ml, hybridoma supernatant, anti-mouse IgG-HRP detection. As for the experimental part:
Further characterizations of the 816C12 antibody were then performed using hybridoma supernatant such as rhIGF-1R or rmIGF-1R or rhIR ELISA. In all direct ELISAs, proteins of interest were immobilized (1 μg/ml) to the bottom of each well. After saturation, hybridoma supernatants were added to the wells. After a 1-hour incubation period and a washing step, a solution of goat anti-mouse IgG—HRP labelled polyclonal antibody was used for detection, prior to the addition of the TMB substrate. The reaction was stopped with a 1M […] solution before reading the OD with a spectrophotometer at a 450 nm wavelength.

T1 sequence (P06213 other isoform, or with tags, fused parts or gaps limits assumed): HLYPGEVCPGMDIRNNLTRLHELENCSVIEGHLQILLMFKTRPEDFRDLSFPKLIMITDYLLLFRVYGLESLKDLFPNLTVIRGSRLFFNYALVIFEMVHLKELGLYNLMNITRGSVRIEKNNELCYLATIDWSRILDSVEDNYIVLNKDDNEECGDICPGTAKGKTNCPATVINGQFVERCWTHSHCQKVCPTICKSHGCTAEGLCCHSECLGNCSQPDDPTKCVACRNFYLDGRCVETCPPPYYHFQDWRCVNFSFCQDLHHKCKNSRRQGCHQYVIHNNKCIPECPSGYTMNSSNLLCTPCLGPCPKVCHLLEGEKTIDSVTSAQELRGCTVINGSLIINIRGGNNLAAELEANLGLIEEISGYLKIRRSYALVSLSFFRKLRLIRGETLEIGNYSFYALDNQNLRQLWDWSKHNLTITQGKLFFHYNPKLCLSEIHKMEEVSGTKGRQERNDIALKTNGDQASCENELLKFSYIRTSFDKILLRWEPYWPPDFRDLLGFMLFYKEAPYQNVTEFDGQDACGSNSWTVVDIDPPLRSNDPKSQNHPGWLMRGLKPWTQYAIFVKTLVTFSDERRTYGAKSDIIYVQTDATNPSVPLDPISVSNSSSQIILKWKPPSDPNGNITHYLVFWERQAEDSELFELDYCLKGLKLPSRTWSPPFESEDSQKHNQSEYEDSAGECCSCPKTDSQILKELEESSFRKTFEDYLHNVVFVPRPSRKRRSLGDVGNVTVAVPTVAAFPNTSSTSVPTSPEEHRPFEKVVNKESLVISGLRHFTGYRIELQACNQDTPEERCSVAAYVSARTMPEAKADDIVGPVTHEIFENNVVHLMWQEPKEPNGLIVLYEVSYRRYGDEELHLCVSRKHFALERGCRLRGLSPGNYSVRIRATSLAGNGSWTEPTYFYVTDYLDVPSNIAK

B1: 816C12 anti-IGF-1R monoclonal antibody (antibody, V domains shown)
VH: EVQLQQSGPELVKPGASVKMSCKASGHTFTSYVLHWMKRKPGQGLEWIGYINPHNDVTKYNENFKGKATLTSDKYSSTVYMEVSSLTSEDSAVYYCVSTAYYGNGRYFDVWGAGTTVTVSS
VL: DIQMTQTTSSLSASLGDRVTISCRASQDINNYLNWYQQKPDGTVKLLIYYTSRLHSGVSSRFSGSGSGTDYSLTISNLEQEDIATYFCQQGNTLPWTFGGGTKLEIK
notes: Murine monoclonal antibody from a Balb/C hybridoma; It was used as hybridoma supernatant in the ELISAs and at 5 ug/ml in IHC; also called I-4894; antibody secreted by hybridoma CNCM I-4894
Regarding B1, the binding result was “no binding (tested: 5 µg/ml)”.

Values taken from US20210018508A1 (PIERRE FABRE MEDICAMENT, published 2021).
